# Results published in the NTF2 design screens of Basanta et al. (2020).
# Assay: protease stability score; higher = more stable; yeast display proteolysis, trypsin and chymotrypsin;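 note: relative to predicted unfolded state with 0 unfolded-like and 1 meaning tenfold more protease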
row,Sequence,protease stability score
1,DEHDEFLEISFKILKKTDDTGDERESRKLADPDARLHVNGVDFHGWEDFKKIMVDLGWRIEEIRIEHIRLVGDKIIIHERVRLRVGDKKRDLHFTIIALKINGRWHLRELHIE,1.38
2,DEHDEHYHRLMKVLVDMMATGDWRTIHELMDPDARSDIDGREVHGREEVIRVIKEFFDKFKGARIEIRLRRWDTINGRIDVRVQLDVNFNGRTEQYDTRIHNVVVDGVSEELTVEVK,1.39
3,DEHDELIERIARIYFEDELTGDWDSMMRLMDPRTRDDYNGKERHGWEEVETFFEELRKKFKGMKFHLEHLDVIGNKVHIIARWNVNGRHVQVHIDIIAFDGRVKSFSERVDIR,1.15
4,DEHDEMSQIASEILRTVIETGNENELERMVDPHVKSIVNGRTHHGRETLSELKKKLGWERVHNRIHHVEIVGDKVVVRGSIHWNGRDVRVEFIITKVDGRWIIEEIRFH,1.07
5,DEHDERMESVLRHLWHNWKTGDEDRLAELADPNTRTNINGKNFHGWEYMVREFSRFLKHIRIQDLKIRDFRVIDGRAISDVIVHGEVDGKDIDVKTRVELIIINGRFHTLSFTFE,1.3
6,DEHDERQHKIHRRFFEAYMTGNEDEMLQLADPNVRLHIGDKDLIGRELFSTWVRELHDRFPGMRIHIEDEDIQGEKSHHRVRIHVDGVTRNVRINQDWYNGRLREMSIDIR,0.353
7,DEHDESVRTAWEYYKRVIETGDEDISKKLADPHMKFEFENHSIHGWENIYRELTRLMREMRIHHVEIEHFRVYGDFVEIHIRVDGTVNGRRIITKMDLYITKIDGKWYLHSRRIE,0.543
8,DEHDEYLHHLLKVLWELIMTGDEHTFERLADPNVRLEVGNYFHVGRENIREMWKFLHDLLGVDHFRLHIRDLRVFNGVADAEYELRLNQGDKETRIEVRIYVHIVNGVLKSIRIETH,1.44
9,DEHDHILKRLSEELLHMMETGDEDALAELFDPHARMEYNGQEIHGRRDVERIRREILEKLGVDKIHTEVKEERFVGEKLEVHTHLHVDGVHFTVRIHWVKFNGRWVIRTLHIE,1.38
10,DEHDKETKEMLERFLEATETGNEKHSEELFDPRTRMEFDGVEIHGRETITKILTELWERADHIQFVLHDLRLVDGRVELDMRIRLHYDGQEYRRRSKVLLWKIDGRWVIRSERYE,1.99
11,DEHDKFVEEMARRHIRNLVTGDWEEQSRLMDPHVRIEIDINGRKREYHGREDWKYWLDELKRQFDHYEVRLRDFRIQGEYALFRLEESYIIGDKVIEQETELHIDVFNGRIRRVSFSVK,0.956
12,DEHDKHVHEMAERIMRSWHTGDEDTFHKMADPNVRVEIFVNGKNIIRHGREVWKHELERYDHVELRIKSMDAQGDFVHIDGELTINIGDKKHSTTLRIELEFINGRLKRISVHIH,1.05
13,DEHDKLLKELSERMFELWETGDEDRLHKLADPHALSRVGEFSIHGMRNHMEWLREWLRRVKNATIHVRDVDLQGNKSRFDHELIIDGVELKVIDNIVLVNGRIKEIRIEIN,0.027
14,DEHDKLMKDIAKLLLELWKTGDEEIFQHLMDPDTRMDVNGVQLHGMELIVKILRDEIHKIKNVKVLDKRNTVIGDKIHLDVEIVIGDKRIRMKLDVIVVNGRIKVFEIHTE,1.36
15,DEHDQHLKEWLDILLEVISTGDESRLQEMLDPNARLDVNGRKIHGRDEVLRAFHDHLDRFDHLHDLRIEHSNTVDGKAYIEGRDDGVVDGKRVFLRTRYFIITVNGKVHEVKIEID,1.92
16,DEHDRDARRFTDILLEAFMTGDEDLSHKMLDPNMRLHINGKIHHGRELATELLHEMRIERLVIEDYRIHYQGEKVHVTLHGRLHGRVDGKEHNSEVNIFINIEKVNGKWIVRSFTLKIH,1.47
17,DEHEDDARRMWELLEHDLQTGDEESIHRLVDPNAKVVYGDKEFVGREVLLRFASEWRVHLMHLDDIKIRTYGDKIDIDTTTITNGEFNGRKHVTRTHLRVHFEKVNGKWYVREVIIEIH,1.31
18,DEHEDHVLEVFRIILEILLTGDFREWRRLADPTVRLEFNGREYHGRDEILEFLTQHIRHWRLKHIHIDNYEVYDGRIEVHGHIRFTFNGKEHIIETRIIINVFDGRLHDEQYITH,1.53
19,DEHEDNLQHLIHVMTELFITGDWKELRHLIDPNALLHINGKDVHGWHLALEHIVRWREEMGVKHSHVERIHLQGDKTHLHMREHFNGRTVELEIRIIFVNGRLESHEMRIRNN,0.822
20,DEHEEAFREFLRLLLESLRTGDEHTLKRLIDPHARIDIDGQEFVGMEHLEHILKNMIKHIRYEDIEIEHFEFINGQVRFKTRYHGRINGKRDTLHIHIIITKINGKWVLEQLEFR,2.15
21,DEHEEALEEFLTEMIENIKTGDWHSELKLMDPHVRILFDGVIFHGREFFFQWLRHLLQRADHVNFTIDDKKYQGDKMVIETTFHLIINGQRIERYTVLLARKVNGRWYIEEVRLH,2.33
22,DEHEEASKLAIELLLTLERTGDEDKLRKLVDPNVRYDINGRELHGWEFMHRMIRHLRTEHVTIERVHVQGDWIHIDRILNVNVNGKEINIRTKINAQKINGVWIEREVEIQ,1.09
23,DEHEEDARRDLEKLARSLKTGDEDSLRTLFDPNTRNDVNGKDFIGWEELLRILREWRFHDMKVEDLEVQGNKVISHVRLDGTFDGRRDEMHVEIRAEKVNGRWRIRSYIVR,1.77
24,DEHEEDMERFLRELLDHWRTGDEDVIRELMDPHVKVDINGKIHHGREEAVHFLIEMRFRHFHVHDLRVQGEKADVDGRTHMEYNGRTVDQRITIHLVKIDGKWREKSITLE,1.24
25,DEHEEDVSKFTKMWEEDIRTGDEDSLYKMIDPHALLDFNGKEIIGREEVMHILHEELRELRIHNVHTHDIKVQGNKVNLNIRFNIEINGRIYDLQYKYDWRKINGRWFAHSEVIR,0.764

row,Sequence,protease stability score
1,DEHEEDWRHVLKTLEDVMRTGDPHLFSHLADPHVRLRIDGRDHIGMELMWEILHKYKNITIEIEHSRVQGDKIEIRGTLDVDGRRYHVTIFADKINGKWIHREMEVT,1.18
2,DEHEEEAHKFVELKRRIWKTGDERLKSELADPNVKITFNGKELHGMEELIKVNREMGIKHVQIEDIDFQGNKVMVFGRSNIGDFNNRVEIIAEKYNGKWSLSEVRIH,0.322
3,DEHEEEAIRMLRLIFFLLHTGDWEVMHELFDPHARFTINGRRIHGMEEWLKFLREIRIEDSDIHVKRIDIQGDKMRIKGVVHLEGNVNGRREHTELHIDVHLEKVNGRWIIRLIEFK,2.35
4,DEHEEELKRILELIEHLIHTGDEDTMLHLADPNVRSHVNGRDRHGWNLYLRLLEELVWRLGIKHMEIHSTTAIDGRVIIHMRLHVGDKTIHVILLFQVVDGRVKSSSVEVHEE,1.44
5,DEHEEEVLRIARDFLEALRTGDEEHMTELMDPHVRLEVDGRDLHGREEVLRLLVEQWERIKNVTWEVERLEIVNGRLIIQLRVHVNGQNHDVRLYINVVDGVVKSIRHEKH,1.47
6,DEHEEEVREMHRVWVELLRTGDWRILAEMFDPNVRMHIGDKEHHGREAIEIHIEKFKNVRLEITRVHIQGEYIVIEGVINIDGKTHTLRFHFVLVNGRLKQYDEHSE,2
7,DEHEEFAERNLKLLTELEETGNEDEIRKQADPHVRIEIGDKDIVGMHLWAKWVTHVKDRFDHIEVRLHRVHVQGDKILMHTQLILTQGNYRREFRTEVIIRKINGRWVLHSMHFH,1.42
8,DEHEEFLHRWAEQFLKNMITGDFDRLHELLDPHVRWRIGDKDSIGWKTIIDVVKDLLREIRIEDVTLHRIEVQGDKSIIVITTIVEIDGRRYRTTVIIRMRIIDGRLKSVDVEER,1.31
9,DEHEEHVHEITRLIIEAELTGDFERMKKMFDPNAKLILLINGREDTNHGMDFVRFWLKEHLERVDHRRVELKRWDVVNGVSHNDVTLHLEVGEWKITVKMHLHIVVVDGRLKSIKIEIR,1.4
10,DEHEEHWREMFERWLFALITGDEETLHKLLDPNVKMDINGQHHVGREQVLHEFRKFHDVLGVKVSRNFHVKDKEVQGDKLHLTIEFRGEFNGKEEITQARIVIVKINGRWTIERVELE,1.97
11,DEHEEISRRLAEFENEWINTGDEESFARNADPDVRIHVGEFHSHGREEMIRILKEFFRWLGVKHFRPTHIEIQGEKVIIYLEWHFDGRTHRIQIISVVVDGRRKSFQVHKL,0.185
12,DEHEEKIHFILHILQEAWRTGDESQLENLLDPNVRIIIGDKKTHGREAVINLFNHWRVENIRVHLRDVRVQGDKIHLETEIQVDGNVNGKTDRIEFETEFIIRKVDGRWLIEVIRMH,2.17
13,DEHEEKLIKHMESLLHWEETGDEESMLKNADPNARHDVNGVEFHGMHRFVHHVIKRGWRFRMEVEHVDAFDGRYRVEGTLILNFDGVEHRHHVILRFIVIDGRLHERKVEVR,1.46
14,DEHEELIMEFLRRLLEWHLTGDEEYISRNFDPNTQFDILIGDKRYHIHGREEIHEWLHEFLRELRVHIIVHEMRAQGDKAHNRGTLNLTYGDKRRTVDVHIFIVVVNGRYKKIIVQVK,1.62
15,DEHEELLEHIIRLWLKYIHTGDFRNWMKYADPNAKWRTENHEHHGREEIARDLHEFNKKLGMEFRIDLRHFEIQGDKVRMHTEYILHIGDYTERRETEVTVIIVDGKIKSIRLLVR,1.67
16,DEHEELLRRIFELLLHALKTGDEDLLYKMADPNTRSIIGDKIHHGMEEHRKAVEKWLREMGVKHIEIKRVHIQGEKIHIDTHWKVGDKSETVKINIHVIDGRLTEIHIEIE,1
17,DEHEELLRRLADEWFKSLLTGDEDRLLELADPNMRIRLLINGRDEKIHGWEELVRWFREIRFRSMDIDSFTLVNGKIQIRFKYRGRVNGQTHETRSEFLLIVIDGKVTHVEVRLE,2.46
18,DEHEELMEEFMRKILHAWLTGDWDLINEMADPDVRTNINGRNEIGREEFEKLWQEIRFRRFDLKRWHVFNGVIHIDGHIDGEVNGRRTKRDVLIRLFIFNGRLKKEEVEYL,1.55
19,DEHEELMRRLMQLWMENWLTGDEDVLYKLADPNAKWDINGVKLHGREKMNEDRKEILERHGATFYLEIRDFTVINGRAHVDGHEDYIINGKRIRTDVQIILVIVNGKFKSEEVKIR,0.292
20,DEHEELMRTLAEIVLRIFLTGDWDSFSKLADPNYRIDWNGRHTHGMHLAERVLREIHRQIRIDNVILQDMRIQGNKVHNHGTIDGNINGVHDKVQTHVHLILVDGRLKEVEFRHH,-0.231
21,DEHEEMFTKLMRELIHIWLTGDEDILNHMADPNVLVEINGRREHGREALSRFLEKFKNVRIHLHSSTAIGEKSIIDTQININGKQIKVRVEIYMVDGKIKEIRLDIQ,1.29
22,DEHEEMVRIFIKLFIHNSHTGNEEELTRMADPHTKVDVNGKEYIGREEWRRFFMELGVDHVEVRRVHVQGEKAEVDLELNIDGRVIRFHIYTLKINGKWIIKSLEVR,1.78
23,DEHEENVRKDIKEHEETEKTGDEKAYLEMADPHVKVDIDGVDLHGMERVTNFYRELLHKFPNIRIHTRHVDVQGEKVHVETELEWNGVKLETELVWVKINGRWLTHEIHIR,1.2
24,DEHEEQIEEFWRITVDQWMTGNEELIETYLDPNARVDINGKQTHGREQVTRLMLREMKHMRIKSIKLRRVRIVDGRVDLDGTLHGEVNGREFVLESHVHAEKFDGRWLIRTIKVN,2.23
25,DEHEEQVRRFLHHLWRSVQTGDEHELANNFDPNTRVDVGDKHLHGMERFVYLIFEFARHWRIRHTTLHFIVRIGEFIEVDHILDGEIDGRRREVKMTIIIFKVDGRWIIRSMEVK,1.82
